Data: the RNAGym collection of RNA variant scans (doi:10.7554/elife.80360)

B1: Hairpin Ribozyme (parent)
chain: GUCCUCUUUCACGUGCGCGUGAAAGAGAGAAGUGAACCAGAGAAACACACGUUGUGGUAUAUUACCUGGUA

Variants of: B1
Test: self-cleavage, relative activity (ratio to wild type); higher = more cleavage; co-transcriptional

| Variant | self-cleavage |
| --- | --- |
| G25C C65A | 0.382 |
| G25C C65G | 0.174 |
| A26C A41C | 0.734 |
| A24C U63G | 0.0877 |
| A24C U63A | 0.0496 |
| A24C A39G | 0.28 |
| A23U G69U | 0.247 |
| G25C A36G | 0.497 |
| G25C A36C | 0.539 |
| G25C G27A | 0.213 |
| G25A C46U | 0.116 |
| G25A G27A | 0.148 |
| A24C C50A | 0.103 |
| A24C C50U | 0.418 |
| A24C G40A | 0.335 |
| A24C G40C | 0.185 |
| G25A A49U | 0.209 |
| A24U C48U | 0.252 |
| A24U G40C | 0.116 |
| G25A A47C | 0.107 |
| G25A A41G | 0.494 |
| A24G A26G | 0.569 |
| A24G A26C | 0.367 |
| A24G A26U | 0.661 |

| Variant | self-cleavage |
| --- | --- |
| G25A A36U | 0.363 |
| G25C A49U | 0.21 |
| G25C A49G | 0.255 |
| A23U G29C | 0.145 |
| G25U A41G | 0.611 |
| G25U A41C | 0.953 |
| G25C G32A | 0.0816 |
| G25C G32U | 0.0809 |
| G25U U67A | 0.145 |
| G25C A26G | 0.254 |
| A26C A61C | 0.0459 |
| A26C A64U | 0.158 |
| A26C A64G | 0.539 |
| G25A C66U | 0.239 |
| A24C U67C | 0.208 |
| A24G U52A | 1.12 |
| G25U U58G | 0.439 |
| G25C G51A | 0.591 |
| G25U C37A | 0.261 |
| G25U A49U | 0.136 |
| G25C U53C | 0.417 |
| A24U G51C | 0.805 |
| A24G U60C | 0.936 |
| A23U G40A | 0.309 |

| Variant | self-cleavage |
| --- | --- |
| A26C C37A | 0.156 |
| A26C C37G | 0.373 |
| A24G A64C | 0.17 |
| A24C A49C | 0.308 |
| A24U U52A | 0.925 |
| A24U U52G | 0.744 |
| G25C A59U | 0.134 |
| G25C A59C | 0.232 |
| G25C A47U | 0.0432 |
| A24G U63A | 0.231 |
| G25C C46U | 0.0896 |
| G25A G51C | 0.479 |
| A23U G54C | 0.551 |
| A23U G54U | 0.538 |
| A24G A61G | 0.254 |
| G25U C50A | 0.283 |
| G25C A64U | 0.134 |
| G25U C65A | 0.735 |
| G25U C65U | 0.188 |
| G25U C65G | 0.211 |
| A23U U58C | 1.05 |
| A23U U58G | 0.663 |
| A24U A45U | 0.159 |
| G25C G40A | 0.0978 |

| Variant | self-cleavage |
| --- | --- |
| G25C A41U | 0.931 |
| A24G U70A | 0.746 |
| A23U G57A | 0.116 |
| G25U U70A | 0.432 |
| G25U U70C | 0.679 |
| G25U U70G | 0.613 |
| A24U A71U | 0.783 |
| G25A G32C | 0.0951 |
| A24G C65A | 0.706 |
| A24G C65U | 0.371 |
| G25U A59U | 0.237 |
| G25A U33A | 0.235 |
| G25A U33C | 0.0884 |
| A24C C66G | 0.0731 |
| A24C C66A | 0.187 |
| G25C G34U | 1.25 |
| G25C G34A | 0.821 |
| A23U G42U | 0.246 |
| A23U G42C | 0.259 |
| A24G G56A | 0.187 |
| A26C A31C | 0.0424 |
| A26C A31U | 0.097 |
| A26C A31G | 0.445 |
| A24U A31C | 0.163 |

| Variant | self-cleavage |
| --- | --- |
| G25U A35C | 0.691 |
| A24U A47C | 0.3 |
| A24U A47G | 0.164 |
| A23U C65U | 0.402 |
| A23U C65A | 0.752 |
| G25C G68A | 0.192 |
| A23U G51U | 0.893 |
| G25A G34U | 1.11 |
| G25A G34A | 0.715 |
| G25U A39C | 0.336 |
| A26C A71G | 1.01 |
| A26C A47C | 0.199 |
| A24U G69C | 0.271 |
| A23U U67G | 0.213 |
| A23U U67A | 0.237 |
| A23U U67C | 0.229 |
| G25U C48A | 0.143 |
| G25U C48U | 0.163 |
| A24G A71C | 1.4 |
| A24U G57U | 0.188 |
| A24C G25A | 0.219 |
| A24C G32A | 0.161 |
| A24C G32C | 0.131 |
| G25C U58A | 0.308 |

| Variant | self-cleavage |
| --- | --- |
| G25C U58C | 0.559 |
| A24C A71C | 1.33 |
| G25U A71G | 0.654 |
| G25U G68U | 0.159 |
| G25U G68C | 0.243 |
| A24U U53C | 0.885 |
| A24U U53A | 1.03 |
| A24C A41G | 0.846 |
| A24U A41G | 0.71 |
| A24G G69A | 0.392 |
| A24U C46A | 0.11 |
| A24C A31C | 0.209 |
| A24C A31U | 0.107 |
| A24G U55A | 0.272 |
| A24G U55C | 0.196 |
| G25C A71U | 0.476 |
| A23U U63G | 0.199 |
| A24U A28C | 0.449 |
| A24G C66G | 0.226 |
| A24G G54C | 0.458 |
| G25U A64C | 0.177 |
| G25A U70C | 0.588 |
| A24C G54U | 0.534 |
| A24C G54C | 0.313 |

| Variant | self-cleavage |
| --- | --- |
| G25U G69C | 0.0669 |
| G25U G69U | 0.165 |
| G25C G69A | 0.149 |
| A24G A36G | 0.679 |
| A23U G27A | 0.394 |
| G25U G54C | 0.241 |
| G25C A39U | 0.262 |
| G25C A39C | 0.324 |
| G25A A59C | 0.196 |
| G25A A59U | 0.21 |
| A24C G51A | 0.932 |
| A24C G51C | 0.77 |
| G25A | 0.634 |
| G25U | 0.65 |
| G25C | 0.563 |
| G25A G68A | 0.164 |
| G25A G68U | 0.152 |
| G25C A61U | 0.213 |
| A24C A35U | 0.938 |
| A26C C46G | 0.106 |
| A24U G56C | 0.14 |
| G25U A43U | 0.217 |
| G25U A43G | 0.183 |
